# According to IntAct's records for PubMed 20840750:
# B1: Cryptochrome-2 (Mus musculus), Q9R194 (parent)
# chain: MAAAAVVAATVPAQSMGADGASSVHWFRKGLRLHDNPALLAAVRGARCVRCVYILDPWFAASSSVGINRWRFLLQSLEDLDTSLRKLNSRLFVVRGQPADVFPRLFKEWGVTRLTFEYDSEPFGKERDAAIMKMAKEAGVEVVTENSHTLYDLDRIIELNGQKPPLTYKRFQALISRMELPKKPAVAVSSQQMESCRAEIQENHDDTYGVPSLEELGFPTEGLGPAVWQGGETEALARLDKHLERKAWVANYERPRMNANSLLASPTGLSPYLRFGCLSCRLFYYRLWDLYKKVKRNSTPPLSLFGQLLWREFFYTAATNNPRFDRMEGNPICIQIPWDRNPEALAKWAEGKTGFPWIDAIMTQLRQEGWIHHLARHAVACFLTRGDLWVSWESGVRVFDELLLDADFSVNAGSWMWLSCSAFFQQFFHCYCPVGFGRRTDPSGDYIRRYLPKLKGFPSRYIYEPWNAPESVQKAAKCIIGVDYPRPIVNHAETSRLNIERMKQIYQQLSRYRGLCLLASVPSCVEDLSHPVAEPGSSQAGSISNTGPRALSSGPASPKRKLEAAEEPPGEELTKRARVTEMPTQEPASKDS
# Variants of: B1
# Conditions: with per2_mouse Per2, O54943
# Chain of per2_mouse Per2, O54943 (O54943 whole entry): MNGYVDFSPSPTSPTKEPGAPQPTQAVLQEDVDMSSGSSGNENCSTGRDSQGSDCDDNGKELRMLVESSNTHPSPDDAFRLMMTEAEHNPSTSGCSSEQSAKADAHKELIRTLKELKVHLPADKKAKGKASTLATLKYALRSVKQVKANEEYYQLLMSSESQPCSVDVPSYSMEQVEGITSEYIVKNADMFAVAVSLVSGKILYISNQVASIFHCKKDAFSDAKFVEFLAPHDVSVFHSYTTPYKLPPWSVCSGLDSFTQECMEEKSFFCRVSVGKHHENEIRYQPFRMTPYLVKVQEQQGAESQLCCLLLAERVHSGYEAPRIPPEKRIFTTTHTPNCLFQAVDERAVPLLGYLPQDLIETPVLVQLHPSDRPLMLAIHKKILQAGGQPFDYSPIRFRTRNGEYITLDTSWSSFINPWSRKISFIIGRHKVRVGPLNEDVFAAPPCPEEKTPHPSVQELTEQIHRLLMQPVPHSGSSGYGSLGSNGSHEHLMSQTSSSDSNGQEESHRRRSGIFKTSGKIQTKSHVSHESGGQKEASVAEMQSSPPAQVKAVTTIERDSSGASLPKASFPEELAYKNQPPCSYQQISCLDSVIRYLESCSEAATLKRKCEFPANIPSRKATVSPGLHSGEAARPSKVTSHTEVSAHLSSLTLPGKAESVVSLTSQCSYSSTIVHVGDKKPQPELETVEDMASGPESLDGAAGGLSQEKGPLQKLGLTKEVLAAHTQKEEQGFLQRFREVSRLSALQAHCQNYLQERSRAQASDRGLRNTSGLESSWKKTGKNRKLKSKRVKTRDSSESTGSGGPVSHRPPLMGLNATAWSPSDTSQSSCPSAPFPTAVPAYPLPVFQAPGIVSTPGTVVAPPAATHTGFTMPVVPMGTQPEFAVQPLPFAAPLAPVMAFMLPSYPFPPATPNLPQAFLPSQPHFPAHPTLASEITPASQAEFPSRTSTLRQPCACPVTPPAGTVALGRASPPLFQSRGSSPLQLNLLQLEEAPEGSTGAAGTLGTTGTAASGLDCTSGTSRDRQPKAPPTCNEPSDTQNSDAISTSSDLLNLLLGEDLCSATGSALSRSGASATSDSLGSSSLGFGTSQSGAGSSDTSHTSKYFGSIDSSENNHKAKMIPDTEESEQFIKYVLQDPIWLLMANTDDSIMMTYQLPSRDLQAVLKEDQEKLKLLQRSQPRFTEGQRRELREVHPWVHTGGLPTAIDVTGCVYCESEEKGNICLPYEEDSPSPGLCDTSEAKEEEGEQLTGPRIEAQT
row,Variant,effect of a mutation on the interaction
1,MAAAAVVAATVPAQSMGADGASSVHWFRKGLRLHDNPALLAAVRGARCVRCVYILDPWFAASSSVGINRWRFLLQSLEDLDTSLRKLNSRLFVVRGQPADVFPRLFKEWGVTRLTFEYDSEPFGKERDAAIMKMAKEAGVEVVTENSHTLYDLDRIIELNGQKPPLTYKRFQALISRMELPKKPAVAVSSQQMESCRAEIQENHDDTYGVPSLEELGFPTEGLGPAVWQGGETEALARLDKHLERKAWVANYERPRMNANSLLASPTGLSPYLRFGCLSCRLFYYRLWDLYKKVKRNSTPPLSLFGQLLWREFFYTAATNNPRFDRMEGNPICIQIPWDRNPEALAKWAEGKTGFPWIDAIMTQLRQEGWIHHLARHAVACFLTRGDLWVSWESGVRVFDELLLDADFSVNAGSWMWLSCSAFFQQFFHCYCPVGFGRRTDPSGDYIRRYLPKLKGFPSRYIYEPWNAPESVQKAAKCIIGVDYPRPIVNHAGTSRPNIERMRQTYQQPSRYRGLCLLASVPSCVEDLSHPVAEPGSSQAGSISNTGPRALSSGPASPKRKLEAAEEPPGEELTKRARVTEMPTQEPASKDS [E493G;L497P;K503R;I505T;L509P],decreasing interaction
2,MAAAAVVAATVPAQSMGADGASSVHWFRKGLRLHDNPALLAAVRGARCVRCVYILDPWFAASSSVGINRWRFLLQSLEDLDTSLRKLNSRLFVVRGQPADVFPRLFKEWGVTRLTFEYDSEPFGKERDAAIMKMAKEAGVEVVTENSHTLYDLDRIIELNGQKPPLTYKRFQALISRMELPKKPAVAVSSQQMESCRAEIQENHDDTYGVPSLEELGFPTEGLGPAVWQGGETEALARLDKHLERKAWVANYERPRMNANSLLASPTGLSPYLRFGCLSCRLFYYRLWDLYKKVKRNSTPPLSLFGQLLWREFFYTAATNNPRFDRMEGNPICIQIPWDRNPEALAKWAEGKTGFPWIDAIMTQLRQEGWIHHLARHAVACFLTRGDLWVSWESGVRVFDELLLDADFSVNAGSWMWLSCSAFFQQFFHCYCPVGFGRRTDPSGDYIRRYLPKLKGFPSRYIYEPWNAPESVQKAAKCIIGVDYPRPIVNHAETGRPNTERMRQTYQQPSRYRGLCLLASVPSCVEDLSHPVAEPGSSQAGSISNTGPRALSSGPASPKRKLEAAEEPPGEELTKRARVTEMPTQEPASKDS [S495G;L497P;I499T;K503R;I505T;L509P],decreasing interaction
3,MAAAAVVAATVPAQSMGADGASSVHWFRKGLRLHDNPALLAAVRGARCVRCVYILDPWFAASSSVGINRWRFLLQSLEDLDTSLRKLNSRLFVVRGQPADVFPRLFKEWGVTRLTFEYDSEPFGKERDAAIMKMAKEAGVEVVTENSHTLYDLDRIIELNGQKPPLTYKRFQALISRMELPKKPAVAVSSQQMESCRAEIQENHDDTYGVPSLEELGFPTEGLGPAVWQGGETEALARLDKHLERKAWVANYERPRMNANSLLASPTGLSPYLRFGCLSCRLFYYRLWDLYKKVKRNSTPPLSLFGQLLWREFFYTAATNNPRFDRMEGNPICIQIPWDRNPEALAKWAEGKTGFPWIDAIMTQLRQEGWIHHLARHAVACFLTRGDLWVSWESGVRVFDELLLDADFSVNAGSWMWLSCSAFFQQFFHCYCPVGFGRRTDPSGDYIRRYLPKLKGFPSRYIYEPWNAPESVQKAAKCIIGVDYPRPIVNHAETSRLNTERMRQTYQQPSRYRGLCLLASVPSCVEDLSHPVAEPGSSQAGSISNTGPRALSSGPASPKRKLEAAEEPPGEELTKRARVTEMPTQEPASKDS [I499T;K503R;I505T;L509P],decreasing interaction
4,MAAAAVVAATVPAQSMGADGASSVHWFRKGLRLHDNPALLAAVRGARCVRCVYILDPWFAASSSVGINRWRFLLQSLEDLDTSLRKLNSRLFVVRGQPADVFPRLFKEWGVTRLTFEYDSEPFGKERDAAIMKMAKEAGVEVVTENSHTLYDLDRIIELNGQKPPLTYKRFQALISRMELPKKPAVAVSSQQMESCRAEIQENHDDTYGVPSLEELGFPTEGLGPAVWQGGETEALARLDKHLERKAWVANYERPRMNANSLLASPTGLSPYLRFGCLSCRLFYYRLWDLYKKVKRNSTPPLSLFGQLLWREFFYTAATNNPRFDRMEGNPICIQIPWDRNPEALAKWAEGKTGFPWIDAIMTQLRQEGWIHHLARHAVACFLTRGDLWVSWESGVRVFDELLLDADFSVNAGSWMWLSCSAFFQQFFHCYCPVGFGRRTDPSGDYIRRYLPKLKGFPSRYIYEPWNAPESVQKAAKCIIGVDYPRPIVNHAETSRPNTEQMKQTYQQPSRYRGLCLLASVPSCVEDLSHPVAEPGSSQAGSISNTGPRALSSGPASPKRKLEAAEEPPGEELTKRARVTEMPTQEPASKDS [L497P;I499T;R501Q;I505T;L509P],decreasing interaction
5,MAAAAVVAATVPAQSMGADGASSVHWFRKGLRLHDNPALLAAVRGARCVRCVYILDPWFAASSSVGINRWRFLLQSLEDLDTSLRKLNSRLFVVRGQPADVFPRLFKEWGVTRLTFEYDSEPFGKERDAAIMKMAKEAGVEVVTENSHTLYDLDRIIELNGQKPPLTYKRFQALISRMELPKKPAVAVSSQQMESCRAEIQENHDDTYGVPSLEELGFPTEGLGPAVWQGGETEALARLDKHLERKAWVANYERPRMNANSLLASPTGLSPYLRFGCLSCRLFYYRLWDLYKKVKRNSTPPLSLFGQLLWREFFYTAATNNPRFDRMEGNPICIQIPWDRNPEALAKWAEGKTGFPWIDAIMTQLRQEGWIHHLARHAVACFLTRGDLWVSWESGVRVFDELLLDADFSVNAGSWMWLSCSAFFQQFFHCYCPVGFGRRTDPSGDYIRRYLPKLKGFPSRYIYEPWNAPESVQKAAKCIIGVDYPRPIVNHAETGRPNTEQMRQTYQQPSRYRGLCLLASVPSCVEDLSHPVAEPGSSQAGSISNTGPRALSSGPASPKRKLEAAEEPPGEELTKRARVTEMPTQEPASKDS [S495G;L497P;I499T;R501Q;K503R;I505T;L509P],decreasing interaction

# Next, values leading:
row,effect of a mutation on the interaction,Variant
1,decreasing interaction,MAAAAVVAATVPAQSMGADGASSVHWFRKGLRLHDNPALLAAVRGARCVRCVYILDPWFAASSSVGINRWRFLLQSLEDLDTSLRKLNSRLFVVRGQPADVFPRLFKEWGVTRLTFEYDSEPFGKERDAAIMKMAKEAGVEVVTENSHTLYDLDRIIELNGQKPPLTYKRFQALISRMELPKKPAVAVSSQQMESCRAEIQENHDDTYGVPSLEELGFPTEGLGPAVWQGGETEALARLDKHLERKAWVANYERPRMNANSLLASPTGLSPYLRFGCLSCRLFYYRLWDLYKKVKRNSTPPLSLFGQLLWREFFYTAATNNPRFDRMEGNPICIQIPWDRNPEALAKWAEGKTGFPWIDAIMTQLRQEGWIHHLARHAVACFLTRGDLWVSWESGVRVFDELLLDADFSVNAGSWMWLSCSAFFQQFFHCYCPVGFGRRTDPSGDYIRRYLPKLKGFPSRYIYEPWNAPESVQKAAKCIIGVDYPRPIVNHAETSRLNIEQMRQIYQQLSRYRGLCLLASVPSCVEDLSHPVAEPGSSQAGSISNTGPRALSSGPASPKRKLEAAEEPPGEELTKRARVTEMPTQEPASKDS [R501Q;K503R]
2,decreasing interaction,MAAAAVVAATVPAQSMGADGASSVHWFRKGLRLHDNPALLAAVRGARCVRCVYILDPWFAASSSVGINRWRFLLQSLEDLDTSLRKLNSRLFVVRGQPADVFPRLFKEWGVTRLTFEYDSEPFGKERDAAIMKMAKEAGVEVVTENSHTLYDLDRIIELNGQKPPLTYKRFQALISRMELPKKPAVAVSSQQMESCRAEIQENHDDTYGVPSLEELGFPTEGLGPAVWQGGETEALARLDKHLERKAWVANYERPRMNANSLLASPTGLSPYLRFGCLSCRLFYYRLWDLYKKVKRNSTPPLSLFGQLLWREFFYTAATNNPRFDRMEGNPICIQIPWDRNPEALAKWAEGKTGFPWIDAIMTQLRQEGWIHHLARHAVACFLTRGDLWVSWESGVRVFDELLLDADFSVNAGSWMWLSCSAFFQQFFHCYCPVGFGRRTDPSGDYIRRYLPKLKGFPSRYIYEPWNAPESVQKAAKCIIGVDYPRPIVNHAETSRLNTEQMKQIYQQLSRYRGLCLLASVPSCVEDLSHPVAEPGSSQAGSISNTGPRALSSGPASPKRKLEAAEEPPGEELTKRARVTEMPTQEPASKDS [I499T;R501Q]
3,decreasing interaction,MAAAAVVAATVPAQSMGADGASSVHWFRKGLRLHDNPALLAAVRGARCVRCVYILDPWFAASSSVGINRWRFLLQSLEDLDTSLRKLNSRLFVVRGQPADVFPRLFKEWGVTRLTFEYDSEPFGKERDAAIMKMAKEAGVEVVTENSHTLYDLDRIIELNGQKPPLTYKRFQALISRMELPKKPAVAVSSQQMESCRAEIQENHDDTYGVPSLEELGFPTEGLGPAVWQGGETEALARLDKHLERKAWVANYERPRMNANSLLASPTGLSPYLRFGCLSCRLFYYRLWDLYKKVKRNSTPPLSLFGQLLWREFFYTAATNNPRFDRMEGNPICIQIPWDRNPEALAKWAEGKTGFPWIDAIMTQLRQEGWIHHLARHAVACFLTRGDLWVSWESGVRVFDELLLDADFSVNAGSWMWLSCSAFFQQFFHCYCPVGFGRRTDPSGDYIRRYLPKLKGFPSRYIYEPWNAPESVQKAAKCIIGVDYPRPIVNHAETSRLNTEQMKQTYQQPSRYRGLCLLASVPSCVEDLSHPVAEPGSSQAGSISNTGPRALSSGPASPKRKLEAAEEPPGEELTKRARVTEMPTQEPASKDS [I499T;R501Q;I505T;L509P]
